Data published in US11464867B2, “Multimeric elastin-like polypeptides” (University of Southern California, priority 2018, dated 2022).
Where “and” joins values, the source holds several entries; their conditions need not be identical. Equal entries are not always repeated. Entries after “also recorded” stand apart in the source; their conditions may differ.

Assays:
[1] = Multivariate fit of the phase diagram of ELP monoblock copolymers; type: physicochemical; conditions: for Tc: critical transition temperature; for n: dependence on inverse of ELP length; for m: dependence on natural logarithm of concentration; for K: interaction term between length and concentration
Description: The Tt of the ELP component can be modified by varying ELP chain length, as the Tt generally increases with decreasing MW. For polypeptides having a molecular weight >100,000, the hydrophobicity scale developed by Urry et al. (PCT/US96/05186, which is hereby incorporated by reference in its entirety) is preferred for predicting the approximate Tt of a specific ELP sequence. However, in some embodiments, ELP component length can be kept relatively small, while maintaining a target Tt, by incorporating a larger fraction of hydrophobic guest residues (e.g., amino acid residues having hydrophobic side chains) in the ELP sequence. For polypeptides having a molecular weight <100,000, the Tt may be predicted or determined by the following function:
[formula] where Tc is a critical transition temperature, m is the dependence on the natural logarithm of concentration, n is the dependence on the inverse of the ELP length l, and k is an interaction term between length and concentration.

[2] = CsA encapsulation by two-phase solvent evaporation, RP-HPLC; type: physicochemical; conditions: for CsA loading compared with a comparator: in words
Method: The mixture was incubated at 37° C. and samples were collected at different time points up to 48 h.
This was followed by high-speed centrifugation and filtration to remove the excess insoluble drug. […] The mobile phase flow rate was set to 1.0 ml/min. The linear gradient from 20% to 95% of methanol was applied from 0 to 5 min. Then the mobile phase was changed to 95% methanol isocratic flow for 10 min.
This was followed by high-speed centrifugation and filtration to remove the excess insoluble drug. The loading ratio was then determined by reversed-phase high-performance liquid chromatography (RP-HPLC) analysis method.
The drug loading capability of 2nd and 3rd generation carriers were also tested using the same encapsulation method detailed above employing the method of Shi, et al., 2013.

[3] = Phase transition temperature by optical density (UV-Vis, 350 nm) versus temperature; type: physicochemical; conditions: for Transition temperature (Tt): at 25 μM, 1° C./min; for Slope, m: fit Tt = b - m Log10[CELP]; for Intercept, b: intercept at 1 μM
Method: The temperature with the maximum positive slope was defined as the phase transition temperature for each condition. (FIG. 2B) The concentration-temperature phase diagram was determined for both ELPs, and fit to the following equation: Tt=b−m Log10[CELP].
Both ELPs at different concentrations (5 μM to 100 μM) were subject to a precisely controlled temperature increase from 25 to 75° C. at a rate of 1° C./min. The Tt of ELPs is defined as the temperature at which the first derivative of the optical density with respect to the temperature reaches a maximum.

human albumin = human albumin (Homo sapiens, UniProt P02768); test: Competition of CsA-loaded CA192 against human albumin (1 mM, 37° C.); type: in vitro ADME; conditions: 48 h
Method: Per molecule of protein, CA192 (SEQ ID NO: 3) binds 10× more drug than albumin. […] The mixture was incubated at 37° C. and samples were collected at different time points up to 48 h. The ELP phase separation was induced to purify CA192 (SEQ ID NO: 3) from the mixture with Albumin, which was—followed by RP-HPLC analysis. (FIG. 4C) Instead of albumin, lipoproteins in the plasma, mainly high-(HDL) and low-(LDL) density lipoprotein, predominantly bind to cyclosporine in the plasma. Thus, CA192-CsA was also tested against mouse plasma over a period of 48 hr.
Samples were collected from the dialysis cassette at different time points between 0 and 192 h and analyzed by RP-HPLC. […] The same drug release experiment was performed using CA192 dimer obtained via SEC. Dialysis was performed against PBS at 37° C. (FIG. 3B) and 4° C. (FIG. 3C). To further validate the release profile, as a control group, with the same encapsulation method, human albumin was explored to load CsA. […] The mixture was incubated at 37° C. and samples were collected at different time points up to 48 h. Another round of […] was performed to purify CA192 from the mixture, followed by RP-HPLC analysis. […] Similar to this competition method against albumin, 300 μM CA192-CsA in PBS was diluted 1:1 in mouse plasma to achieve a final concentration of 150 μM. […]

[4] = Dynamic light scattering (DLS) hydrodynamic radius and stability; type: physicochemical
Method: FIGS. 5A-5D: CA192 (SEQ ID NO: 3) has a good stability in terms of hydrodynamic radius. There are two fractions present in the CA192 (SEQ ID NO: 3) solution: an aggregated form and dimeric form. A dimerized form has similar hydrodynamic radius, Rh as A192. […] Drug-loaded CA192 (SEQ ID NO: 3) has a mean Rh of 64.5±0.5 nm (p<0.05). […] (FIG. 5C) Size Exclusion Chromatography (SEC) was conducted to fractionate CA192 (SEQ ID NO: 3) depending on their particle size. Two fractions were observed. […] In contrast, the fraction 1 contains a mixture of larger aggregates.
The hydrodynamic radius (Rh) of both the loaded and unloaded fusion protein, along with plain A192, was measured via dynamic light scattering (DLS) using a DynaPro Plate Reader II from Wyatt Technology. Before the DLS measurement, solutions were filtered through […] pore size filters. The concentration of each solution was then adjusted to 20 μM. 60 μL from each sample was pipetted into three different wells on the plate reader and covered by 15 μL mineral oil each to avoid solvent evaporation. Centrifugation was then performed to remove air bubbles. […] Based on this DLS method, Applicants performed a stability assay to explore the stability of the fusion protein by measuring the mean Rh shift during incubation at physiological temperature. Briefly, the fusion solution was incubated at 37° C. for different periods of time up to 48 h and the mean Rh of CA192 at these different time points was measured with DLS. […] There might be some slight aggregation occurring in the CA192 protein solution. […] To determine if this was the case, further separation was conducted with size exclusion chromatography (SEC). This process was performed at 4° C. using a Hiload 26/600 column (26×600 mm, particle size 24-44 μM). […] Fragments with absorption above 10 mAu were collected and concentrated with a Spin-X concentrator (pore size 10 kDa). […] (FIG. 5D) Through measuring the CA192 concentration of both fractions, Applicants determined that 20.8% by mass in solution is represented by the multimerized particles. […]

[5] = SEC / Multi-Angle Static Light Scattering (MALS) of CA192 fractions; type: physicochemical
Method: The hydrodynamic radius (Rh) of both the loaded and unloaded fusion protein, along with plain A192, was measured via dynamic light scattering (DLS) using a DynaPro Plate Reader II from Wyatt Technology. Before the DLS measurement, solutions were filtered through […] pore size filters. The concentration of each solution was then adjusted to 20 μM. 60 μL from each sample was pipetted into three different wells on the plate reader and covered by 15 μL mineral oil each to avoid solvent evaporation. Centrifugation was then performed to remove air bubbles. […] Based on this DLS method, Applicants performed a stability assay to explore the stability of the fusion protein by measuring the mean Rh shift during incubation at physiological temperature. Briefly, the fusion solution was incubated at 37° C. for different periods of time up to 48 h and the mean Rh of CA192 at these different time points was measured with DLS. […] There might be some slight aggregation occurring in the CA192 protein solution. […] To determine if this was the case, further separation was conducted with size exclusion chromatography (SEC). This process was performed at 4° C. using a Hiload 26/600 column (26×600 mm, particle size 24-44 μM). […] Fragments with absorption above 10 mAu were collected and concentrated with a Spin-X concentrator (pore size 10 kDa). Two fractions were observed after SEC separation (FIG. 5C). […] (FIG. 5D) Through measuring the CA192 concentration of both fractions, Applicants determined that 20.8% by mass in solution is represented by the multimerized particles. Multi-Angle static Light Scattering (MALS) was then applied to evaluate the aggregation and oligomeric state of CA192. […] Thus, it was concluded that the CA192 fusion protein is mostly maintained as dimerized nanoparticles with a 6.5 nm hydrodynamic radius.
To further evaluate the aggregation and oligomeric state of each fraction, Multi-Angle Static Light Scattering (MALS) was then used to measure the molecular weight of both peaks. […] Similarly, fraction 1 was identified as aggregated form. […]

HeLa cells = test: HeLa cell uptake, co-localization with lysosomes (confocal microscopy); type: cell-based; conditions: 30 μM rhodamine-labeled ELP; 120 min; LysoTracker Green
Method: Lysosomes were labeled by LysoTracker Green® having the structure:
In order to further validate the potential efficacy of CA192 working as a potent drug binding domain, an in vitro cell uptake study was performed. Briefly, CA192 and A192 was labeled with rhodamine and HeLa cell lysosome with LysoTracker Green (LTG)® having the structure as described herein. For the treatment group, HeLa cells were incubated with 30 μM of rhodamine-labeled (rh)-CA192 and 70 nM of LTG for 120 min. For the control group, HeLa cells were incubated with 30 μM of rhodamine-labeled (rh)-A192 and 70 nM of LTG for 120 min. Cells were then rinsed with warm HBSS three times, maintained in the fresh culture medium, and imaged by confocal microscopy. Images were acquired using a Zeiss laser scanning microscope 510 Meta NLO confocal imaging system equipped with Argon, red HeNe, green HeNe laser, and a Coherent Chameleon Ti-Sapphire laser (LSM) mounted on a vibration-free table (Carl Zeiss, Thornwood, N.Y.). All images were acquired using a Plan-Apochromat 63× Oil immersion lens with a working distance of 0.19 mm.

(Val-Pro-Gly-Ile-Gly): ELP monoblock library, SEQ ID NO: 63 (VPGIG)
Tc [1]: 13.0 ± 0.6 °C | n [1]: 760 ± 30 °C pentamers | m [1]: 0 ° C./ln(μM) | K [1]: −81.2 ± 7.9 °C pentamers/ln(μM)

(Val-Pro-Gly-Ser-Gly): ELP monoblock library, SEQ ID NO: 60 (VPGSG)
Tc [1]: 63.6 ± 1.1 °C | m [1]: −1.86 ± 0.31 ° C./ln(μM) | K [1]: 0 °C pentamers/ln(μM)

(Val-Pro-Gly-Val-Gly): ELP monoblock library, SEQ ID NO: 62 (VPGVG)
Tc [1]: 21.2 ± 0.9 °C | n [1]: 1607 ± 90 °C pentamers | m [1]: 0 ° C./ln(μM) | K [1]: −163.1 ± 23.3 °C pentamers/ln(μM)

CA96C: 2nd generation carrier CypA-A96-CypA, SEQ ID NO: 8
CsA loading ratio ([2]; FIG. 16): 127.5%

CA192: cyclophilin A fused to ELP A192, SEQ ID NO: 3
Transition temperature (Tt) [3]: 45.4 °C | Slope, m ([3]; mean ± 95% CI, Table 2): 1.3 ° C./Log10(μM) and 1.3 ± 0.27 ° C./Log10(μM) | Intercept, b ([3]; mean ± 95% CI, Table 2): 47.1 °C and 47.1 ± 0.39 °C | CsA loading compared with a comparator [2]: significantly more drug than albumin | transfer of CsA from CA192 to albumin (human albumin): No significant drug loss; also recorded: unable to extract CsA | stability of Rh ([4]; 37° C., up to 48 h): well maintained throughout 48 h; also recorded: no significant hydrodynamic radius shift; also recorded: stability over 2 days | mean hydrodynamic radius (Rh) ([4]; DLS intensity, 20 μM): 64.8±0.7 nm | Mass Fraction, Fraction 1 (Nano-aggregated form) ([5]; MALS): 10.1% | Mass Fraction, Fraction 2 (Dimeric form) ([5]; MALS): 89.9% | multimerized particles in solution ([5]; from CA192 concentration of both SEC fractions): 20.8 % by mass | co-localization with lysosomes (HeLa cells): obvious co-localization with lysosome; also recorded: co-localized with lysosomes; also recorded: co-localizing with lysosomes

CV96: cyclophilin A fused to ELP V96, SEQ ID NO: 4
Transition temperature (Tt) [3]: 31.2 °C | Slope, m ([3]; Table 3): 4.4 ° C./Log10(μm) | Intercept, b ([3]; Table 3): 36.8 °C | CsA loading compared with a comparator [2]: higher loading ratio

dimerized CA192: dimeric fraction of CA192 isolated by size exclusion chromatography
Transition temperature (Tt) [3]: 49.3 °C | hydrodynamic radius (Rh) after SEC ([4]; 99.2% by mass of fraction 2): 6.5±0.1 nm
